Results on one molecule are retold here after patent US20120148499A1.

Primed or numbered codes have the meaning given here. 5,6FAM″ = fluorescein-5(6)-carbonyl on the lysine (K(5,6FAM))

For this experiment, the target named is purified myelin basic protein (MBP). In words: peptide binding to MBP-crosslinked beads against control beads without MBP.

As to Ac-SHSTYTDWLNFWAWPGK(5,6FAM″)-NH2 [acetyl-…(5,6FAM)-amide], the fold increase in binding to MBP crosslinked beads over control beads (no MBP) is 10 fold.
